# Key:
# Conditions in all cases: Homo sapiens; call rule not given here
# [1] = substrate: C[C@H](Cn1cnc2c(N)ncnc21)OCP(=O)(O)O; assay: (§1) Activity of recombinant AK1 (unknown origin) assessed as ADP formation by spectroscopic pyruvate kinase/lactate dehydrogenase coupled assay
# [2] = substrate: Nc1ncnc2c1ncn2-c1ccc(CO)o1; assay: as §1
# [3] = substrate: Nc1ncnc2c1ncn2-c1ccc(COCP(=O)(O)O)o1; assay: as §1
# [4] = substrate: Nc1ncnc2c1ncn2CCOCP(=O)(O)O; assay: as §1
# [5] = substrate: Nc1ncnc2c1ncn2[C@@H]1O[C@H](COP(=O)(O)O)[C@@H](O)[C@H]1O; assay: as §1
# [6] = substrate: Nc1ncnc2c1ncn2[C@H]1C[C@H](O)[C@@H](COP(=O)(O)O)O1; assay: as §1
# [7] = substrate: C[C@H](Cn1cnc2c(N)ncnc21)OCP(=O)(O)O; assay: (§2) Ratio of Kcat to Km for recombinant AK1 (unknown origin)
# [8] = substrate: Nc1ncnc2c1ncn2-c1ccc(CO)o1; assay: as §2
# [9] = substrate: Nc1ncnc2c1ncn2-c1ccc(COCP(=O)(O)O)o1; assay: as §2
# [10] = substrate: Nc1ncnc2c1ncn2CCOCP(=O)(O)O; assay: as §2
# [11] = substrate: Nc1ncnc2c1ncn2[C@@H]1O[C@H](COP(=O)(O)O)[C@@H](O)[C@H]1O; assay: as §2
# [12] = substrate: Nc1ncnc2c1ncn2[C@H]1C[C@H](O)[C@@H](COP(=O)(O)O)O1; assay: as §2
protein,measurement,setting,value
"Adenylate kinase isoenzyme 1 (Homo sapiens), P00568 (protein) MEEKLKKTKIIFVVGGPGSGKGTQCEKIVQKYGYTHLSTGDLLRSEVSSGSARGKKLSEIMEKGQLVPLETVLDMLRDAMVAKVNTSKGFLIDGYPREVQQGEEFERRIGQPTLLLYVDAGPETMTQRLLKRGETSGRVDDNEETIKKRLETYYKATEPVIAFYEKRGIVRKVNAEGSVDSVFSQVCTHLDALK",Km,[1],3000 µM
same,kcat,[1],0.22 s⁻¹
same,Km,[2],Not Active
same,kcat,[2],Not Active
same,Km,[3],Not Active
same,kcat,[3],Not Active
same,Km,[4],6000 µM
same,kcat,[4],0.08 s⁻¹
same,Km,[5],175 µM
same,kcat,[5],500 s⁻¹
same,Km,[6],1500 µM
same,kcat,[6],240 s⁻¹
same,kcat/Km,[7],75 M⁻¹ s⁻¹
same,kcat/Km,[8],Not Active
same,kcat/Km,[9],Not Active
same,kcat/Km,[10],14 ×10⁶ /M/s
same,kcat/Km,[11],2.85 ×10⁶ /M/s
same,kcat/Km,[12],0.16 ×10⁶ /M/s

# — ChEMBL document CHEMBL3352481, “Synthesis of {[5-(adenin-9-yl)-2-furyl]methoxy}methyl phosphonic acid and evaluations against human adenylate kinases” (Bioorg Med Chem Lett, 2014)
